Potency of inhibition of FGF21 and FGF19 pERK signalling in 293/KLB cells, relative to 19C26, 21C25 and FGF21^18−181 and pERK agonism in 293/KLB and Hep3B cells, potency relative to native FGF21 data for 2 substances are collected here from PMC6026317, “Molecular elements in FGF19 and FGF21 defining KLB/FGFR activity and specificity” (Molecular Metabolism, 2018).

Test [1] deals with Human β-Klotho (KLB) on 293/KLB cells (human) (UniProt Q86Z14).
Test [2] shares this target. The source holds these as a separate data set.

Sequence of Human β-Klotho (KLB) on 293/KLB cells (human) (Q86Z14 whole entry): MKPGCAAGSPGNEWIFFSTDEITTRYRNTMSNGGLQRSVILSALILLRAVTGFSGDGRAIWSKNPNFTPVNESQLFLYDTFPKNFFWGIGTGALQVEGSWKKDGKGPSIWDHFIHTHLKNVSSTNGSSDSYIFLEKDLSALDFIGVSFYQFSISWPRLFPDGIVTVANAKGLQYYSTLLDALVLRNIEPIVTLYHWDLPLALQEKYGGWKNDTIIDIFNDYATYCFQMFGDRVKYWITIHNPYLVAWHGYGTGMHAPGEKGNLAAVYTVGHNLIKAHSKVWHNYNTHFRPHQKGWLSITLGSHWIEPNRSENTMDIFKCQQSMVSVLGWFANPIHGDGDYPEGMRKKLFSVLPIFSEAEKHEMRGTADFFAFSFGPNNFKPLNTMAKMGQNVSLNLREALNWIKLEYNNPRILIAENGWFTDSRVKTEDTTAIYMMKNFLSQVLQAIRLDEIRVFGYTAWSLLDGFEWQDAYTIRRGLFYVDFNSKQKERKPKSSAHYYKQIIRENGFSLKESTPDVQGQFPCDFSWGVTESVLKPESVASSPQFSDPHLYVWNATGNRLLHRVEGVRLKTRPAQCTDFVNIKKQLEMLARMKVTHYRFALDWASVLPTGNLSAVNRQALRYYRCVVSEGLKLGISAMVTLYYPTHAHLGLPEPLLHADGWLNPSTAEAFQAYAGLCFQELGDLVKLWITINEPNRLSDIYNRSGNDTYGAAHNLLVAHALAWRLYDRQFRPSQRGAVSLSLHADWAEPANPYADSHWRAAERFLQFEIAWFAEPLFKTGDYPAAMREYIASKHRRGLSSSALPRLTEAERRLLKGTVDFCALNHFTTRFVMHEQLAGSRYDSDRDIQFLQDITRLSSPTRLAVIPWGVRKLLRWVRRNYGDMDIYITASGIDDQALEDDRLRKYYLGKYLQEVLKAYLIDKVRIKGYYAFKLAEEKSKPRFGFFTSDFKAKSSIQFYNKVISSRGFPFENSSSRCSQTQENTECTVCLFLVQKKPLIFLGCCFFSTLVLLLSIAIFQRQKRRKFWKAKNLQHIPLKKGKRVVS
Sequence of 19C26,A^26 (O95750 other isoform, or with tags, fused parts or gaps): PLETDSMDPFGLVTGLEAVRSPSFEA
Sequence of FGF21-19A hybrid (Q9NSA1 other isoform, or with tags, fused parts or gaps): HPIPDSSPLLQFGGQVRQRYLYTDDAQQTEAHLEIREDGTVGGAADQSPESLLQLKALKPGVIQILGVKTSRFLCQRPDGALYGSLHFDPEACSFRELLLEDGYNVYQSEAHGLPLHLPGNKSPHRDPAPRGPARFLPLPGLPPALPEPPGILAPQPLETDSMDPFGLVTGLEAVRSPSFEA

As for “19C26,A^26 (from UniProt O95750 191-216) (peptide)”, the potency of inhibition of FGF21 and FGF19 pERK signalling in 293/KLB cells, relative to 19C26, 21C25 and FGF21^18−181 in test [1] was > 20 fold.
Substance “FGF21-19A hybrid (from UniProt Q9NSA1 29-184; O95750 191-216) (ligand)” displayed a pERK agonism in 293/KLB and Hep3B cells, potency relative to native FGF21 in test [2] of 10 fold.
